Data: patent US20110104789A1

Legend:
[1] = target: human EF-2 mutant (G717R) (human) (UniProt P13639); assay: cell-based or functional assay
[2] = target: human elongation factor 2 (EF-2) (human) (UniProt P13639); assay: cell-based or functional assay

DT-A(E148D) (from UniProt P00587 26-210) (enzyme)
GFP-positive cells relative to control vector pNL-GFP-RRE-SA, DT-resistant EF-2 mutant cell line 5H7 [1]: 70 to 80%

DT-AΔN (from UniProt P00587 39-210) (enzyme)
GFP-positive cells relative to control vector pNL-GFP-RRE-SA, DT-resistant EF-2 mutant cell line 5H7 [1]: 70 to 80%

wild type diphtheria toxin A chain (DT-A) (from UniProt P00587 26-210) (enzyme)
GFP-positive cells after cotransfection with pNL-DT-GFP-RRE-SA plus pCMVΔR8.2, EF-2 mutant clone 4H10 (FIG. 4A) [1]: 14% | GFP-positive cells after cotransfection with pNL-DT-GFP-RRE-SA plus pCMVΔR8.2, EF-2 mutant clone 5E12 (FIG. 4A) [1]: 9% | GFP-positive cells after cotransfection with pNL-DT-GFP-RRE-SA plus pCMVΔR8.2, EF-2 mutant clone 5H7 (FIG. 4A) [1]: 46% | GFP-positive cells after cotransfection with pNL-DT-GFP-RRE-SA plus pCMVΔR8.2, EF-2 mutant clone AB1 (FIG. 4A) [1]: 24% | GFP-positive cells after cotransfection with pNL-DT-GFP-RRE-SA plus pCMVΔR8.2, EF-2 mutant clone CB2 (FIG. 4A) [1]: 28% | GFP-positive cells, 5H7 cells (FIG. 4B; control pNL-DT(R)-GFP-RRE-SA gave 64%) [1]: 54% | share of 5H7 cells surviving the toxin [1]: > 80% | GFP-positive cells after cotransfection with pNL-DT-GFP-RRE-SA plus pCMVΔR8.2, parental HEK293T cells (FIG. 4A) [2]: 0% | GFP-positive cells, HEK293T cells (FIG. 4B; control pNL-DT(R)-GFP-RRE-SA gave 43%) [2]: 0%

DT-A(E148S) (from UniProt P00587 26-210) (enzyme)
GFP-positive cells relative to control vector pNL-GFP-RRE-SA, DT-resistant EF-2 mutant cell line 5H7 [1]: 70 to 80%

DT-A(176) (from UniProt P00587 26-210) (enzyme)
GFP-positive cells relative to control vector pNL-GFP-RRE-SA, DT-resistant EF-2 mutant cell line 5H7 [1]: 70 to 80%
